Data from patent US20060067886A1, “Gastrin receptor-avid peptide conjugates” (priority 1997, published 2006).

Tests used:
[1] = molecular target: T1, GRP receptors on Swiss 3T3 cells (Mus musculus, UniProt P21729); assay: Competitive cell binding vs 125I-Tyr4-BBN, Swiss 3T3 cells
T1 construct: endogenous in cells; host or cells: Swiss 3T3 mouse fibroblasts (whole cells)
Experimental: The binding affinities of the synthetic BBN derivatives were assessed for GRP receptors on Swiss 3T3 cells and, in some cases, on a variety of human cancer cell lines, that express GRP receptors. […] The cell binding assay methods used to measure the IC50's is standard and used techniques previously reported [Jensen et al., 1993; Cai et al., 1994; Cai et al., 1992]. The methods used for determining IC50's for all GRP receptor binding compounds on all cell lines was similar. The specific method used to measure IC50's on Swiss 3T3 cells is briefly described as follows:
(§1) Swiss 3T3 mouse fibroblasts are grown to confluence in 48 well microtiter plates. […] The growth media was removed, the cells were washed twice with incubation media, and incubation media was returned to the cells. ^125I-Tyr4-BBN (0.01 uCi) was added to each well in the presence of increasing concentrations of the appropriate competitive peptide. Typical concentrations of displacing peptide ranged from 10-12 to 10-5 moles of displacing ligand per well. The cells were incubated at 37° C. for forty minutes in a 95% […]/5% CO2 humidified environment. At forty minutes post initiation of the incubation, the medium was discarded, and the cells were washed twice with cold incubation media. The cells were harvested from the wells following incubation in a trypsin/EDTA solution for five minutes at 37° C. Subsequently, the radioactivity, per well, was determined and the maximum % total uptake of the radiolabeled peptide was determined and normalized to 100%.
The binding affinities of the synthetic BBN derivatives were assessed for GRP receptors on Swiss 3T3 cells, PC-3 cells and CF PAC-1 cells. The IC50's of each of derivative were determined relative to (i.e., in competition with) ^125I-Tyr^4-BBN. The cell binding assay methods used to measure the IC50's is standard and was used by techniques previously reported [Jensen et al., 1993; Cai et al., 1992; Cai et al., 1994]. The methods used for determining IC50's with all BBN analogue binding to GRP receptors present on all three cell lines were similar. The specific method used to measure IC50's on Swiss 3T3 cells, is briefly described as follows:
as §1, with “microliter” for “microtiter”, “^125I-Tyr^4-BBN” for “^125I-Tyr4-BBN”, “μCi)” for “uCi)”, “10^−12” for “10-12”, “10^−5” for “10-5”, “100%. A similar procedure was used in performing cell binding assays with both the PC-3 and CFa-PAC-1 human cancer cell lines.” for “100%.”

[2] = tested on: Swiss 3T3 cells; assay: Internalization and efflux, Swiss 3T3 cells; type: cell-based, mouse; details: sixty minutes / one hour post-washing
Experimental: After establishment of equilibrium after a forty minute incubation, the media surrounding the cells was removed and the cells were washed with fresh media containing no radioactivity. […] The cells were then incubated in a 0.2M acetic acid solution (pH 2.5) which caused the surface proteins (incl., GRP receptors) to denature and release all surface bound radioactive materials. After removing this buffer and washing, the cells were counted again.
To determine intracellular retention, a similar method was employed. […] FIG. 12 is a graph of results of efflux experiments using Swiss 3T3 cells with ^125I-Lys^3-BBN.

[3] = in vivo; details: SCID, mouse, in vivo, iv, 4 uCi, total radioactivity, Avg % ID, Muscle
Experimental: In vivo pharmacokinetic studies in human tumor bearing SCID mice. […] The xenograft models were produced by bilateral flank inoculation of 5×10^6 cells (PC-3 or MDA-MB-231 cells) per site. Four to six weeks post inoculation, palpable tumors were observed. At this point, the mice were injected with 4 μCi of the complex in […] of isotonic saline via the tail vein. The mice were euthanized and tissues and organs were excised from the animals at selected times post-injection (p.i.), including 15 minutes, 30 minutes, 1 hour, 4 hours, 24 hours, 48 hours, and 72 hours p.i. Subsequently, the tissues and organs were weighed and counted in a NaI well counter and the percent injected dose (% ID) and % ID/g of each organ or tissue calculated.
The mice were injected with 4 μCi of the complex in 100 μL of isotonic saline via the tail vein. The mice were euthanized by cervical dislocation. Tissues and organs were excised from the animals following at 1 hour, 4 hour, and 24 hours post-injection (p.i.). Subsequently, the tissues and organs were weighed and counted in a NaI well counter and the percent injected dose (% ID) and % ID/g of each organ or tissue calculated.

[4] = tested on: PC-3 human tumor xenografts; assay: Single dose radiotherapy in PC-3 tumor bearing SCID mice; type: in vivo; details: up to 20 mCi/kg single dose
Excerpt: In vivo pre-clinical evaluation of single dose radiotherapy in human tumor bearing SCID mice. […] The xenograft model was produced by bilateral flank inoculation of 5×10^6 PC-3 cells per site. […] Baseline weights, hematology profiles, and tumor measurements were obtained immediately prior to therapy administration. Four groups of animals were utilized; a saline placebo, a 5 mCi/kg single dose, a 10 mCi/kg single dose, and a 20 mCi/kg single dose. Tumor measurements and weights were obtained twice weekly throughout the 14 weeks post injection.

T1 sequence (P21729 whole entry): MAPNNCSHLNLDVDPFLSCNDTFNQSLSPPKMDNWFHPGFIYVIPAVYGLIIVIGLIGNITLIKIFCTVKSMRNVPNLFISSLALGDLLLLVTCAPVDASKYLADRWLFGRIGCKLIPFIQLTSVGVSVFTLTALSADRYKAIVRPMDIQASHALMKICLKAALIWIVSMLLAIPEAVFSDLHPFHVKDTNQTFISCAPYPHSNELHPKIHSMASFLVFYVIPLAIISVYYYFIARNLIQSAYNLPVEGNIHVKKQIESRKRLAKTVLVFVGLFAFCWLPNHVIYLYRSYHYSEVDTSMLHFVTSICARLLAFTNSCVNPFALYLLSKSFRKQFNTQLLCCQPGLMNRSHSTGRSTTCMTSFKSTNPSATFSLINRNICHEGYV

Row | Structure (SMILES) | IC50 [1] [nM] | activity remaining associated with the cells [2] | tissue uptake dose at 4 h ([3]; 4 hrs) [%ID] | tissue uptake dose at 48 h ([3]; 48 hrs) [%ID] | tissue uptake dose at 72 h ([3]; 72 hrs) [%ID] | tolerability of radiation doses [4]
1 | CC(C)C[C@H](NC(=O)[C@H](Cc1c[nH]cn1)NC(=O)CNC(=O)[C@@H](NC(=O)[C@H](C)NC(=O)[C@H](Cc1c[nH]c2ccccc12)NC(=O)[C@H](CCC(N)=O)NC(=O)CCCCNC(=O)COC1CSCCCSCCCSCCCSC1)C(C)C)C(N)=O [105Rh-BBN-61] | 4.1 | less than 10% |  |  |  | 
2 | CSCC[C@H](NC(=O)[C@H](CC(C)C)NC(=O)[C@H](Cc1cnc[nH]1)NC(=O)CNC(=O)[C@@H](NC(=O)[C@H](C)NC(=O)[C@H](Cc1c[nH]c2ccccc12)NC(=O)[C@H](CCC(N)=O)NC(=O)CCCCCCCNC(=O)CN1CCN(CC(=O)O)CCN(CC(=O)O)CCN(CC(=O)O)CC1)C(C)C)C(N)=O [90Y-DOTA-8-Aoc-BBN[7-14]NH2, metal not drawn] |  |  | 0.01 ± 0.01 | 0.01 ± 0.02 | 0.01 ± 0.02 | well tolerated
